In the supplement of paper PMC9112550, “Optimization of the antimicrobial peptide Bac7 by deep mutational scanning” (BMC Biology, 2022):

Test system: Escherichia coli TOP10
Assay: shrunken log2 fold change of peptide-encoding DNA abundance (4.5 h post-induction vs induction); higher = less antimicrobial activity (less host growth inhibition)
Conditions: time post-induction: 4.5 h; library: site-saturation at positions 5, 18, 19, 20
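Note: peptides expressed intracellularly from a pBAD plasmid library in pooled LB shake-flask culture, induced with 0.3% L-arabinose, DNA abundance read by NGS, three biological replicates, DESeq2 with apeglm shrinkage.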

| Sequence | shrunken log2 fold change |
| --- | --- |
| RRIRPRPPRLPRPRPRPGSRPRP | 0.144 |
| RRIRQRPPRLPRPRPRPCYRPRP | -0.00251 |
| RRIRWRPPRLPRPRPRPVVVPRP | 0.281 |
| RRIRCRPPRLPRPRPRPRKMPRP | -0.00382 |
| RRIRMRPPRLPRPRPRPQVAPRP | 0.0435 |
| RRIRSRPPRLPRPRPRPEFRPRP | 0.15 |
| RRIRTRPPRLPRPRPRPDQKPRP | -0.056 |
| RRIRNRPPRLPRPRPRPWMRPRP | 0.311 |
| RRIRFRPPRLPRPRPRPDTQPRP | 0.0363 |
| RRIRPRPPRLPRPRPRPQKNPRP | -0.169 |
| RRIRVRPPRLPRPRPRPKTQPRP | 0.0766 |
| RRIRIRPPRLPRPRPRPKDAPRP | 0.176 |
| RRIRVRPPRLPRPRPRPMASPRP | -0.01 |
| RRIRMRPPRLPRPRPRPGVIPRP | 3.26 |
| RRIRDRPPRLPRPRPRPDIMPRP | 0.0348 |
| RRIRYRPPRLPRPRPRPDMNPRP | 0.00911 |
| RRIRERPPRLPRPRPRPVCCPRP | -0.163 |
| RRIRNRPPRLPRPRPRPNHFPRP | -0.0479 |
| RRIRRRPPRLPRPRPRPSKLPRP | -0.0224 |
| RRIRFRPPRLPRPRPRPSQYPRP | -0.292 |
| RRIRVRPPRLPRPRPRPMHFPRP | -0.409 |
| RRIRRRPPRLPRPRPRPRIHPRP | -0.113 |
| RRIRDRPPRLPRPRPRPISYPRP | -0.381 |
| RRIRTRPPRLPRPRPRPIRMPRP | -0.441 |
| RRIRVRPPRLPRPRPRPSRPPRP | 0.196 |

| Sequence | shrunken log2 fold change |
| --- | --- |
| RRIRHRPPRLPRPRPRPELHPRP | 0.00184 |
| RRIRERPPRLPRPRPRPDVSPRP | 0.0276 |
| RRIRLRPPRLPRPRPRPVDQPRP | 0.194 |
| RRIRERPPRLPRPRPRPMSRPRP | -0.00149 |
| RRIRNRPPRLPRPRPRPSPRPRP | 0.0772 |
| RRIRVRPPRLPRPRPRPNMFPRP | -0.103 |
| RRIRTRPPRLPRPRPRPQRCPRP | 0.00192 |
| RRIRFRPPRLPRPRPRPLCYPRP | -0.557 |
| RRIRWRPPRLPRPRPRPDSCPRP | -0.0201 |
| RRIRERPPRLPRPRPRPCVMPRP | -0.41 |
| RRIRMRPPRLPRPRPRPELCPRP | 3.34 |
| RRIRARPPRLPRPRPRPCKMPRP | 0.145 |
| RRIRARPPRLPRPRPRPRAQPRP | 0.465 |
| RRIRPRPPRLPRPRPRPDVSPRP | 0.0525 |
| RRIRRRPPRLPRPRPRPAINPRP | -0.0133 |
| RRIRQRPPRLPRPRPRPGNLPRP | 0.0588 |
| RRIRCRPPRLPRPRPRPNATPRP | 0.382 |
| RRIRARPPRLPRPRPRPSNYPRP | -0.901 |
| RRIRYRPPRLPRPRPRPRVHPRP | -0.0416 |
| RRIRMRPPRLPRPRPRPCVAPRP | 0.764 |
| RRIRYRPPRLPRPRPRPYGAPRP | -0.202 |
| RRIRTRPPRLPRPRPRPMIPPRP | -0.12 |
| RRIRGRPPRLPRPRPRPVTHPRP | 0.106 |
| RRIRNRPPRLPRPRPRPWFWPRP | 0.422 |
| RRIRRRPPRLPRPRPRPCFMPRP | -0.207 |

| Sequence | shrunken log2 fold change |
| --- | --- |
| RRIRLRPPRLPRPRPRPDKKPRP | -0.0455 |
| RRIRVRPPRLPRPRPRPMKHPRP | -0.525 |
| RRIRPRPPRLPRPRPRPMWAPRP | -0.201 |
| RRIRIRPPRLPRPRPRPMTGPRP | -0.4 |
| RRIRLRPPRLPRPRPRPLVTPRP | 0.000277 |
| RRIRYRPPRLPRPRPRPKQTPRP | 0.283 |
| RRIRTRPPRLPRPRPRPDNNPRP | -0.48 |
| RRIRDRPPRLPRPRPRPFNSPRP | -0.0203 |
| RRIRCRPPRLPRPRPRPKKDPRP | -0.000499 |
| RRIRSRPPRLPRPRPRPRCGPRP | 0.34 |
| RRIRERPPRLPRPRPRPKYYPRP | -0.183 |
| RRIRMRPPRLPRPRPRPMEYPRP | 0.0305 |
| RRIRFRPPRLPRPRPRPGGQPRP | 0.0786 |
| RRIRCRPPRLPRPRPRPARVPRP | 0.453 |
| RRIRQRPPRLPRPRPRPSRPPRP | 0.37 |
| RRIRPRPPRLPRPRPRPTYMPRP | -0.0483 |
| RRIRNRPPRLPRPRPRPSQNPRP | -0.386 |
| RRIRSRPPRLPRPRPRPTPSPRP | 0.376 |
| RRIRVRPPRLPRPRPRPVYDPRP | -0.182 |
| RRIRMRPPRLPRPRPRPVMQPRP | -0.221 |
| RRIRYRPPRLPRPRPRPKREPRP | 0.0201 |
| RRIRVRPPRLPRPRPRPYSWPRP | -0.163 |
| RRIRIRPPRLPRPRPRPYMAPRP | -0.281 |
| RRIRFRPPRLPRPRPRPGESPRP | -0.00672 |
| RRIRIRPPRLPRPRPRPAVCPRP | -0.214 |

| Sequence | shrunken log2 fold change |
| --- | --- |
| RRIRARPPRLPRPRPRPDCTPRP | 0.27 |
| RRIRGRPPRLPRPRPRPENCPRP | 0.111 |
| RRIRIRPPRLPRPRPRPAVEPRP | 0.193 |
| RRIRARPPRLPRPRPRPILTPRP | 0.0217 |
| RRIRYRPPRLPRPRPRPHDGPRP | 0.015 |
| RRIRYRPPRLPRPRPRPAMPPRP | -0.549 |
| RRIRPRPPRLPRPRPRPNYTPRP | -0.679 |
| RRIRFRPPRLPRPRPRPHSNPRP | -0.84 |
| RRIRLRPPRLPRPRPRPFSFPRP | -0.388 |
| RRIRCRPPRLPRPRPRPKKGPRP | -0.129 |
| RRIRSRPPRLPRPRPRPCVQPRP | -0.0792 |
| RRIRIRPPRLPRPRPRPQNNPRP | -0.957 |
| RRIRMRPPRLPRPRPRPLDVPRP | 0.287 |
| RRIRPRPPRLPRPRPRPDICPRP | 0.0683 |
| RRIRGRPPRLPRPRPRPALFPRP | 1.23 |
| RRIRIRPPRLPRPRPRPPTTPRP | 0.0744 |
| RRIRGRPPRLPRPRPRPWGKPRP | -0.0896 |
| RRIRTRPPRLPRPRPRPDVQPRP | 0.0493 |
| RRIRKRPPRLPRPRPRPYLCPRP | -0.0593 |
| RRIRLRPPRLPRPRPRPAMQPRP | 0.0214 |
| RRIRYRPPRLPRPRPRPMMMPRP | -0.497 |
| RRIRPRPPRLPRPRPRPDDLPRP | -0.296 |
| RRIRGRPPRLPRPRPRPDICPRP | 0.2 |
| RRIRLRPPRLPRPRPRPVEQPRP | -0.0062 |
| RRIRTRPPRLPRPRPRPRDDPRP | 0.107 |

| Sequence | shrunken log2 fold change |
| --- | --- |
| RRIRYRPPRLPRPRPRPAMCPRP | 0.00292 |
| RRIRERPPRLPRPRPRPVPWPRP | 0.0881 |
| RRIRARPPRLPRPRPRPSVWPRP | -0.0231 |
| RRIRYRPPRLPRPRPRPCFEPRP | -0.614 |
| RRIRMRPPRLPRPRPRPWRGPRP | 0.497 |
| RRIRCRPPRLPRPRPRPNMTPRP | -0.229 |
| RRIRVRPPRLPRPRPRPDWIPRP | -0.218 |
| RRIRQRPPRLPRPRPRPCVPPRP | -0.0509 |
| RRIRERPPRLPRPRPRPGPKPRP | -0.00801 |
| RRIRPRPPRLPRPRPRPWVLPRP | -0.0962 |
| RRIRFRPPRLPRPRPRPKCEPRP | 0.051 |
| RRIRVRPPRLPRPRPRPNAFPRP | -0.0289 |
| RRIRQRPPRLPRPRPRPNPCPRP | -0.349 |
| RRIRRRPPRLPRPRPRPPLHPRP | 0.695 |
| RRIRWRPPRLPRPRPRPKRKPRP | 0.502 |
| RRIRERPPRLPRPRPRPKMIPRP | -0.399 |
| RRIRRRPPRLPRPRPRPPVLPRP | 0.18 |
| RRIRERPPRLPRPRPRPIGAPRP | -0.464 |
| RRIRSRPPRLPRPRPRPYDAPRP | -0.557 |
| RRIRSRPPRLPRPRPRPQEEPRP | -0.0262 |
| RRIRRRPPRLPRPRPRPCTNPRP | 0.0186 |
| RRIRWRPPRLPRPRPRPMFFPRP | 0.111 |
| RRIRTRPPRLPRPRPRPRHMPRP | -0.115 |
| RRIRPRPPRLPRPRPRPFFQPRP | 0.0612 |
| RRIRERPPRLPRPRPRPEILPRP | -0.159 |
